# Measurements published in patent publication US20240228562A1 (Pieris, published 2024).
# T1: huCYR61 (human, UniProt O00622 25-381, limits assumed)
# T1 construct: also called human CYR61 (CCN1)
# T1 sequence (looked up): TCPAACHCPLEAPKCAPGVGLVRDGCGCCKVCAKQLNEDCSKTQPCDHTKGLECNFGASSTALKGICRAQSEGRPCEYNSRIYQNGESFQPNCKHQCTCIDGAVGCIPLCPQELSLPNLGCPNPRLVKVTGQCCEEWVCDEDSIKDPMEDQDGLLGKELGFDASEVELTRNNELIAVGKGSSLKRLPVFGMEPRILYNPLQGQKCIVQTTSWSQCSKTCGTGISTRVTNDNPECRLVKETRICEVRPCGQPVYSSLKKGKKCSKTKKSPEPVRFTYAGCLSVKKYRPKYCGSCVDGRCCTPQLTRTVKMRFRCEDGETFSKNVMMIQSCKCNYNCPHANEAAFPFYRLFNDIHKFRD
# T2: huNOV (human, UniProt P48745 32-357, limits assumed)
# T2 construct: also called human NOV (CCN3)
# T2 sequence (looked up): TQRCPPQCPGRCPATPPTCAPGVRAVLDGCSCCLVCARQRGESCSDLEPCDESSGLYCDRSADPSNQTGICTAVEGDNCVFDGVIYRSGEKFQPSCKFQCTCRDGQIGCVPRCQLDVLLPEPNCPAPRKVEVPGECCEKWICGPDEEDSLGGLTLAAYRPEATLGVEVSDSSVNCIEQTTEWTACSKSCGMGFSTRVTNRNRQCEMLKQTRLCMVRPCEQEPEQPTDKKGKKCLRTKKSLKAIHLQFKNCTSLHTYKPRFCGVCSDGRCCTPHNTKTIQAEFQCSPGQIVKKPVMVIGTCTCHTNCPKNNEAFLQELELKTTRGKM
# T3: huWISP-1 (human, UniProt O95388 23-367, limits assumed)
# T3 construct: also called human WISP-1 (CCN4)
# T3 sequence (looked up): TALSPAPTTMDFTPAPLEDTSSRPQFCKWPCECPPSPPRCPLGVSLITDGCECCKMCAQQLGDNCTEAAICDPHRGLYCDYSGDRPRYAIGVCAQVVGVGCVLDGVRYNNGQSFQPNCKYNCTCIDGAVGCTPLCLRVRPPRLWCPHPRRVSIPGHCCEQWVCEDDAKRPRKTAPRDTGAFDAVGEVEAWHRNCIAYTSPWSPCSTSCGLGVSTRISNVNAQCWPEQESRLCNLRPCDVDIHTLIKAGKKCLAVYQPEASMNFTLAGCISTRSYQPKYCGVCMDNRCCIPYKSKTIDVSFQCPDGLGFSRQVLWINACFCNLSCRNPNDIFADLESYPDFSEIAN
# T4: huWISP-2 (human, UniProt O76076 24-250, limits assumed)
# T4 construct: also called human WISP-2 (CCN5)
# T4 sequence (looked up): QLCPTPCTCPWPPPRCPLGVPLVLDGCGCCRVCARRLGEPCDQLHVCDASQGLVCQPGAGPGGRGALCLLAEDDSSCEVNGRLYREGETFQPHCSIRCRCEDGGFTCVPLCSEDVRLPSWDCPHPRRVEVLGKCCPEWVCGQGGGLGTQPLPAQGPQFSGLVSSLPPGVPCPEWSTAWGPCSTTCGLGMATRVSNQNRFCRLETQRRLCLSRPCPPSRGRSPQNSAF
# T5: huWISP-3 (human, UniProt O95389 24-354, limits assumed)
# T5 construct: also called human WISP-3 (CCN6)
# T5 sequence (looked up): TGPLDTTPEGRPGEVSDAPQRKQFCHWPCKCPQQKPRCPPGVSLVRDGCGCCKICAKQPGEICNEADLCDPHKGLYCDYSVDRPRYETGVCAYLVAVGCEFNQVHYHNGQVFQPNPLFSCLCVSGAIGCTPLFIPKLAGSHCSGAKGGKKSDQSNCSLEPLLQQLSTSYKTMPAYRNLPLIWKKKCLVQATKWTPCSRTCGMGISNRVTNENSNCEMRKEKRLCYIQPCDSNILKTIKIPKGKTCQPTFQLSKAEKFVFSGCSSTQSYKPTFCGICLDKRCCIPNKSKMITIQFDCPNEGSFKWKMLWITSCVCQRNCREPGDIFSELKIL
# T6: CTGF expressed by TGF-β1-stimulated normal human lung fibroblasts (NHLFs) (human, UniProt P29279 27-349)
# T6 construct: whole, on cells; Cells grown under conditions that facilitate pseudo-3D extracellular matrix deposition; also called CTGF-expressing NHLFs
# T6 sequence (looked up): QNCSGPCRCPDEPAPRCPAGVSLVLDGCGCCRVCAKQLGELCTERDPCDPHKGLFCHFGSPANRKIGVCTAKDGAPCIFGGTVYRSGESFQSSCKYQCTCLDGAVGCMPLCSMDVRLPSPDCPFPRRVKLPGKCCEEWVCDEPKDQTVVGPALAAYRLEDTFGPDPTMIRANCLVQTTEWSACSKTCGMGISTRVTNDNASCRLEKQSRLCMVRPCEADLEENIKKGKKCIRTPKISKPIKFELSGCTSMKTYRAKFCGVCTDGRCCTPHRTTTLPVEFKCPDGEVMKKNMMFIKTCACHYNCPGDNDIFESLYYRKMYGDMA
# T7: recombinant rat CTGF protein (R&D Systems) (rat, UniProt Q9R1E9 25-347)
# T7 construct: Bought; also called rCTGF
# T7 sequence: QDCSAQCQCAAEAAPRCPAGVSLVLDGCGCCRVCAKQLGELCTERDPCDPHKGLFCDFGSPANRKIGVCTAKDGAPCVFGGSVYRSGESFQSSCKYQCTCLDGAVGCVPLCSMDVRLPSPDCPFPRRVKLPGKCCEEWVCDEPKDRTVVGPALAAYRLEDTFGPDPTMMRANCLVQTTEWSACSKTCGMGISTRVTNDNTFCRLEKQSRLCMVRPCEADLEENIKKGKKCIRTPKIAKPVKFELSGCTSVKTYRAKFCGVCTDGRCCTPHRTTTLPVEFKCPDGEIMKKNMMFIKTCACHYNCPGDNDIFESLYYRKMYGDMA
# B1: lipocalin mutein of SEQ ID NO: 23 (designed binder)
# chain: QDSTSDLIPAPPLSKVPLQQNFQDNQFQGKWYVVGVAGNAILRPDKQPAKMFATIYELKEDKSYDVTSVRFEAKSCKYTIKTFVPGSQPGEFTSGQIKSAPGQTSTLVRVVSTNYNQHAMVFFKHVSQNREIFVITLYGRTKELTSELKENFIRFSKSLGLPENHIVFPVPIDQCIDG
# notes: also called hNGAL mutein
# B2: lipocalin mutein of SEQ ID NO: 6 (designed binder)
# chain: QDSTSDLIPAPPLSKVPLQQNFQDNQFQGKWYVVGRAGNNQLREDKSPPKMWATIYELKEDKSYDVTHVHFSTKKCRYIIDTFVPGSQPGEFTAGAIKSGPGLTSPLVRVVSTNYNQHAMVFFKWVTQNREWFTITLYGRTKELTSELKENFIRFSKSLGLPENHIVFPVPIDQCIDG
# notes: also called hNGAL mutein; not shown: C-terminal His-tag
# What was measured:
# [1] = target: T8, recombinant human CTGF-Fc protein (Creative Biomart) (human); assay: SPR (Biacore)
# T8 construct: Bought; also called human CTGF with a human IgG1 Fc Tag
# T8 sequence (chain, as listed by the source limits assumed): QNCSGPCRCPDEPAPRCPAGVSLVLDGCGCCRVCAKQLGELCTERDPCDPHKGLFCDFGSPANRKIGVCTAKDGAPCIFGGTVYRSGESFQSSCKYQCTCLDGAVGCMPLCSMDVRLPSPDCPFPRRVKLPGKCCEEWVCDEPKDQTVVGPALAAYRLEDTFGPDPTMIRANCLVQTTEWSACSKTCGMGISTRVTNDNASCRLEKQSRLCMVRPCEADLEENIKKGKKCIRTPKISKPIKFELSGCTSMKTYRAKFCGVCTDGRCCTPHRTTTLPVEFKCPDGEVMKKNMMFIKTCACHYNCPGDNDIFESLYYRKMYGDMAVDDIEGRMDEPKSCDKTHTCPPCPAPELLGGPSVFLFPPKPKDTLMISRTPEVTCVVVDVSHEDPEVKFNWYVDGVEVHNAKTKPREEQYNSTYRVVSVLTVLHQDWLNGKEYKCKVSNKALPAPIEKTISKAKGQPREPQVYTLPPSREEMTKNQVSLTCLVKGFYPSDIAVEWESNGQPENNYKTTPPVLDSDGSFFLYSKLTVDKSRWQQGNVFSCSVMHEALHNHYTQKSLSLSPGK
# Procedure: (§1) The binding of exemplary lipocalin muteins to human (Creative Biomart), cynomolgus, rat (R&D Systems) and mouse CTGF (Abbexa) was determined by SPR using a Biacore instrument (Cytiva, formerly GE Healthcare). Some targets were fused to a human IgG1 Fc tag, and captured via the anti-human IgG antibody kit, others were directly immobilized.
# (§2) For some measurements, human CTGF with a human IgG1 Fc Tag or rat or murine CTGF without a tag were directly immobilized to a CM5 Chip. The carboxyl groups on the chip were activated using 1-ethyl-3-(3-dimethylaminopropyl)-carbodiimide (EDC) and N-hydroxysuccinimide (NHS). […] Residual non-reacted NHS-esters were blocked by passing a solution of 1 M ethanolamine across the surface. The reference channel was activated/deactivated. For the capture setting, targets with an IgG Fc Tag at 0.25-2.5 μg/mL in HBS-EP+ buffer were captured by the anti-human IgG-Fc antibody at the chip surface for 180 s at a flow rate of 10 μL/min.
# (§3) The binding assay was carried out with a contact time of 180 s, a dissociation time of 900-3600 s and a flow rate of 30 μL/min. All measurements were performed at 25° C. […] For the directly immobilized targets, the same regeneration conditions were used. Prior to the protein measurements, three startup cycles were performed for conditioning purposes.
# [2] = target: T1, huCYR61; assay: ELISA, coated CCN protein
# Procedure: (§4) Binding of muteins to closely related proteins of CTGF was tested by an ELISA assay. In detail, a 384-well plate suitable for fluorescence measurements (Greiner FLUOTRAC™ 600, black flat bottom, high-binding) was coated with 20 μl of human CTGF or the other members of the CCN protein family at a concentration of 1 μg/ml in PBS over night at 4° C. After washing with PBS with 0.05% Tween 20, wells were blocked with 100 μl blocking buffer containing 0.1% Tween 20 and 2% BSA (PBS-T/BSA) for 1 h at room temperature. 20 μl of serially diluted muteins starting at 1000 nM were incubated in PBS-T/BSA for 1 h at room temperature (RT).
# (§5) The residual supernatants were discarded and 20 μl HRP-labeled anti-NGAL or anti-Strep-Tag antibody was added at a predetermined optimal concentration in PBS-T/BSA and incubated for 1 h at RT. After washing, 20 μl fluorogenic HRP substrate (QuantaBlu, Thermo) was added to each well, and the reaction was allowed to proceed for 2 to 60 minutes. The fluorescence intensity of every well on the plate was read using a fluorescence microplate reader (Tecan). When the signal for human CTGF approached saturation, the cross reactivity to the other proteins was assessed.
# [3] = target: T2, huNOV; assay: ELISA, coated CCN protein
# Procedure: as §4, §5
# [4] = target: T3, huWISP-1; assay: ELISA, coated CCN protein
# Procedure: as §4, §5
# [5] = target: T4, huWISP-2; assay: ELISA, coated CCN protein
# Procedure: as §4, §5
# [6] = target: T5, huWISP-3; assay: ELISA, coated CCN protein
# Procedure: as §4, §5
# [7] = target: T6, CTGF expressed by TGF-β1-stimulated …; assay: immunofluorescence staining of the lipocalin scaffold (AlexaFluor647 secondary antibody) on NHLFs incubated 24 h with the construct and 10 ng/ml TGF-β1; signal normalised to the NGAL control
# Procedure: Binding of the CTGF-targeting lipocalin muteins and fusion proteins disclosed herein to CTGF-expressing, TGF-β1-stimulated normal human lung fibroblasts (NHLFs) was tested by incubating NHLFs for 24 h with constructs and 10 ng/ml TGF-β1, which induces CTGF expression. NHLFs without TGF-β1 stimulation were included as negative control. Constructs were detected with a secondary antibody against the lipocalin scaffold coupled to AlexaFluor647 after NHLFs were fixed in 4% PFA and blocked with 5% BSA. Images were acquired on the Cytation5 Reader (Biotek). Signals were quantified in Gene5 software and normalized to the respective controls.
# [8] = target: T7, recombinant rat CTGF protein (R&D …); assay: SPR (Biacore); B = binding without determination of kinetics constants
# Procedure: as §1, §2, §3
Binder,Kd [1] [nM],koff [1] [s⁻¹],kon [1] [M⁻¹ s⁻¹],binding result [2],binding result [3],binding result [4],binding result [5],binding result [6],binding result [7],binding result [8]
B1,0.077,9.42e-06,122000,no binding (tested: dilutions starting at 1000 nM),no binding (tested: dilutions starting at 1000 nM),no binding (tested: dilutions starting at 1000 nM),no binding (tested: dilutions starting at 1000 nM),no binding (tested: dilutions starting at 1000 nM),binds,
B2,0.514,0.000149,290000,,,,,,,binds
